Test results published in PMC8391806, “Enthalpy–Entropy Compensation in the Promiscuous Interaction of an Intrinsically Disordered Protein with Homologous Protein Partners” (Biomolecules, 2021).
Each block holds one binder with its values, some of them ahead of it.

Experiments:
Conditions in all cases: both partners purified
[1] = biological target: T1, JNK1 kinase (residues 1–364 of human JNK1 (isoform α1) with a C-terminal 6xHis tag) (human, UniProt P45983 1-364); assay: NMR 15N CEST + ITC; on-rate worked out from the off-rate of CEST (5 °C) and the dissociation constant of ITC (20 °C)
T1 construct: Human JNK1 (c-Jun N-terminal kinase 1), isoform α1, residues 1-364; source: expressed and purified as described previously [34,35]

[2] = biological target: T1, JNK1 kinase (residues 1–364 of human …); assay: NMR 15N CEST; 250 μM 15N MKK4 with 10% molar ratio of JNK1; 5 °C; 50 mM HEPES pH 7.1, 150 mM NaCl, 2 mM DTT, 5% glycerol; two-site exchange model (ChemEx)
[3] = biological target: T2, p38α kinase (residues 1–360 of human p38α) (human, UniProt Q16539 1-360); assay: NMR 15N CEST and CPMG relaxation dispersion; 247 μM 15N MKK4 with 6% molar ratio of p38α; data acquired previously [35], analysed here with a two-site exchange model
T2 construct: source: expressed and purified as described previously [34,35]

[4] = biological target: T2, p38α kinase (residues 1–360 of human …); assay: NMR 15N CEST and CPMG relaxation dispersion + ITC; on-rate worked out from the off-rate of the NMR exchange analysis and the dissociation constant of ITC (ITC of ref. 35)
[5] = biological target: T1, JNK1 kinase (residues 1–364 of human …); assay: ITC; MKK4 (570 μM, with thioredoxin and 6xHis tag) titrated into JNK1 (42 μM); 20 °C; 50 mM HEPES pH 8.2, 150 mM NaCl, 10% glycerol, 0.5 mM TCEP; model of n identical and independent sites

T1 sequence (P45983 1-364): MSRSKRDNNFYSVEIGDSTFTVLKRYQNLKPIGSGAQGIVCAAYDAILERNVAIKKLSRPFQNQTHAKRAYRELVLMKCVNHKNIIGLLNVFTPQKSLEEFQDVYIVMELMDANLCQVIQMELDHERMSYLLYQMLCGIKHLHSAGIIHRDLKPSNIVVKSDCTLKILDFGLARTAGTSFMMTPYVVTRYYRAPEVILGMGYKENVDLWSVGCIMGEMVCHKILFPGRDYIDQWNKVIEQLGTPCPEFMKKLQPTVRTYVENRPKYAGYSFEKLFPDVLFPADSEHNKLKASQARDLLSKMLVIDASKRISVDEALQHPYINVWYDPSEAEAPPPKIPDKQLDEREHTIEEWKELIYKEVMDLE
T2 sequence (Q16539 whole entry, the tested form may be a part): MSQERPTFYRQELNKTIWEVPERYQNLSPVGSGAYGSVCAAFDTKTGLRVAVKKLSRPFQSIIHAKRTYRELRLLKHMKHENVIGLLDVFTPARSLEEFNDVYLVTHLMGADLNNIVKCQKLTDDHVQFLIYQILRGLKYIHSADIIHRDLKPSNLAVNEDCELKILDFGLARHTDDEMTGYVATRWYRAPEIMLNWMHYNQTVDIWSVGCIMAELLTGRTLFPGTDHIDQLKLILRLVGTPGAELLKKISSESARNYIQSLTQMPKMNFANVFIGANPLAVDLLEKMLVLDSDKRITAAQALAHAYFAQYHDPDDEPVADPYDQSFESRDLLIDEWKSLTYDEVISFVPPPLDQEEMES

kon [1]: 6.95e+07 M⁻¹ s⁻¹ | koff [2]: 90 s⁻¹ | population of the bound state (10% molar ratio of JNK1) [2]: 8.7 ± 0.1% | koff [3]: 205 s⁻¹ | population of the bound state (6% molar ratio of p38α) [3]: 6.2 ± 0.1% | kon [4]: 5.01e+07 M⁻¹ s⁻¹
B1: regulatory domain of MKK4 (residues 12–86 of human MKK4), 15N-labeled, for NMR (domain or fragment, UniProt P45985 12-86, looked up)
chain: SGGGSGSGTPGPVGSPAPGHPAVSSMQGKRKALKLNFANPPFKSTARFTLNPNPTGVQNPHIERLRTHSIESSGK
notes: Uniformly 15N-labeled for NMR; also called intrinsically disordered regulatory domain of MKK4; source: expressed and purified as described previously [34,35]

Kd [5]: 1300 nM | stoichiometry N [5]: 1
B2: regulatory domain of MKK4 (residues 12–86) with N-terminal thioredoxin and 6xHis tag, unlabeled, for ITC (domain or fragment, human, UniProt P45985 12-86, looked up)
chain: B1 chain
notes: source: expressed and purified as described previously [34,35]; size-exclusion chromatography in the ITC buffer; not shown: thioredoxin, N-terminal, kept; His6, N-terminal, kept
